B1: 1-567: recombinant Apaf-1 fragment, residues 1-567 of SEQ ID NO: 1 (protein, listed as Homo sapiens)
chain: MDAKARNCLLQHREALEKDIKTSYIMDHMISDGFLTISEEEKVRNEPTQQQRAAMLIKMILKKDNDSYVSFYNALLHEGYKDLAALLHDGIPVVSSSSGKDSVSGITSYVRTVLCEGGVPQRPVVFVTRKKLVNAIQQKLSKLKGEPGWVTIHGMAGCGKSVLAAEAVRDHSLLEGCFPGGVHWVSVGKQDKSGLLMKLQNLCTRLDQDESFSQRLPLNIEEAKDRLRILMLRKHPRSLLILDDVWDSWVLKAFDSQCQILLTTRDKSVTDSVMGPKYVVPVESSLGKEKGLEILSLFVNMKKADLPEQAHSIIKECKGSPLVVSLIGALLRDFPNRWEYYLKQLQNKQFKRIRKSSSYDYEALDEAMSISVEMLREDIKDYYTDLSILQKDVKVPTKVLCILWDMETEEVEDILQEFVNKSLLFCDRNGKSFRYYLHDLQVDFLTEKNCSQLQDLHKKIITQFQRYHQPHTLSPDQEDCMYWYNFLAYHMASAKMHKELCALMFSLDWIKAKTELVGPAHLIHEFVEYRHILDEKDCAVSENFQEFLSLNGHLLGRQPFPNIVQLG
B2: 1-554: recombinant Apaf-1 fragment, residues 1-554 of SEQ ID NO: 1 (protein, listed as Homo sapiens)
chain: MDAKARNCLLQHREALEKDIKTSYIMDHMISDGFLTISEEEKVRNEPTQQQRAAMLIKMILKKDNDSYVSFYNALLHEGYKDLAALLHDGIPVVSSSSGKDSVSGITSYVRTVLCEGGVPQRPVVFVTRKKLVNAIQQKLSKLKGEPGWVTIHGMAGCGKSVLAAEAVRDHSLLEGCFPGGVHWVSVGKQDKSGLLMKLQNLCTRLDQDESFSQRLPLNIEEAKDRLRILMLRKHPRSLLILDDVWDSWVLKAFDSQCQILLTTRDKSVTDSVMGPKYVVPVESSLGKEKGLEILSLFVNMKKADLPEQAHSIIKECKGSPLVVSLIGALLRDFPNRWEYYLKQLQNKQFKRIRKSSSYDYEALDEAMSISVEMLREDIKDYYTDLSILQKDVKVPTKVLCILWDMETEEVEDILQEFVNKSLLFCDRNGKSFRYYLHDLQVDFLTEKNCSQLQDLHKKIITQFQRYHQPHTLSPDQEDCMYWYNFLAYHMASAKMHKELCALMFSLDWIKAKTELVGPAHLIHEFVEYRHILDEKDCAVSENFQEFLSLNGHL
B3: 1-570: recombinant Apaf-1 fragment, residues 1-570 of SEQ ID NO: 1 (protein, listed as Homo sapiens)
chain: MDAKARNCLLQHREALEKDIKTSYIMDHMISDGFLTISEEEKVRNEPTQQQRAAMLIKMILKKDNDSYVSFYNALLHEGYKDLAALLHDGIPVVSSSSGKDSVSGITSYVRTVLCEGGVPQRPVVFVTRKKLVNAIQQKLSKLKGEPGWVTIHGMAGCGKSVLAAEAVRDHSLLEGCFPGGVHWVSVGKQDKSGLLMKLQNLCTRLDQDESFSQRLPLNIEEAKDRLRILMLRKHPRSLLILDDVWDSWVLKAFDSQCQILLTTRDKSVTDSVMGPKYVVPVESSLGKEKGLEILSLFVNMKKADLPEQAHSIIKECKGSPLVVSLIGALLRDFPNRWEYYLKQLQNKQFKRIRKSSSYDYEALDEAMSISVEMLREDIKDYYTDLSILQKDVKVPTKVLCILWDMETEEVEDILQEFVNKSLLFCDRNGKSFRYYLHDLQVDFLTEKNCSQLQDLHKKIITQFQRYHQPHTLSPDQEDCMYWYNFLAYHMASAKMHKELCALMFSLDWIKAKTELVGPAHLIHEFVEYRHILDEKDCAVSENFQEFLSLNGHLLGRQPFPNIVQLGLCE
B4: 1-349: recombinant Apaf-1 fragment, residues 1-349 of SEQ ID NO: 1 (protein, listed as Homo sapiens)
chain: MDAKARNCLLQHREALEKDIKTSYIMDHMISDGFLTISEEEKVRNEPTQQQRAAMLIKMILKKDNDSYVSFYNALLHEGYKDLAALLHDGIPVVSSSSGKDSVSGITSYVRTVLCEGGVPQRPVVFVTRKKLVNAIQQKLSKLKGEPGWVTIHGMAGCGKSVLAAEAVRDHSLLEGCFPGGVHWVSVGKQDKSGLLMKLQNLCTRLDQDESFSQRLPLNIEEAKDRLRILMLRKHPRSLLILDDVWDSWVLKAFDSQCQILLTTRDKSVTDSVMGPKYVVPVESSLGKEKGLEILSLFVNMKKADLPEQAHSIIKECKGSPLVVSLIGALLRDFPNRWEYYLKQLQNKQ
B5: 1-591 K160R: Apaf-1 fragment 1-591 of SEQ ID NO: 1 with K160R substitution (protein, listed as Homo sapiens)
chain: MDAKARNCLLQHREALEKDIKTSYIMDHMISDGFLTISEEEKVRNEPTQQQRAAMLIKMILKKDNDSYVSFYNALLHEGYKDLAALLHDGIPVVSSSSGKDSVSGITSYVRTVLCEGGVPQRPVVFVTRKKLVNAIQQKLSKLKGEPGWVTIHGMAGCGRSVLAAEAVRDHSLLEGCFPGGVHWVSVGKQDKSGLLMKLQNLCTRLDQDESFSQRLPLNIEEAKDRLRILMLRKHPRSLLILDDVWDSWVLKAFDSQCQILLTTRDKSVTDSVMGPKYVVPVESSLGKEKGLEILSLFVNMKKADLPEQAHSIIKECKGSPLVVSLIGALLRDFPNRWEYYLKQLQNKQFKRIRKSSSYDYEALDEAMSISVEMLREDIKDYYTDLSILQKDVKVPTKVLCILWDMETEEVEDILQEFVNKSLLFCDRNGKSFRYYLHDLQVDFLTEKNCSQLQDLHKKIITQFQRYHQPHTLSPDQEDCMYWYNFLAYHMASAKMHKELCALMFSLDWIKAKTELVGPAHLIHEFVEYRHILDEKDCAVSENFQEFLSLNGHLLGRQPFPNIVQLGLCEPETSEVYQQAKLQAKQEVDNG
B6: C115S: point mutation C115S made in SEQ ID NO: 1 (protein, listed as Homo sapiens)
chain: MDAKARNCLLQHREALEKDIKTSYIMDHMISDGFLTISEEEKVRNEPTQQQRAAMLIKMILKKDNDSYVSFYNALLHEGYKDLAALLHDGIPVVSSSSGKDSVSGITSYVRTVLSEGGVPQRPVVFVTRKKLVNAIQQKLSKLKGEPGWVTIHGMAGCGKSVLAAEAVRDHSLLEGCFPGGVHWVSVGKQDKSGLLMKLQNLCTRLDQDESFSQRLPLNIEEAKDRLRILMLRKHPRSLLILDDVWDSWVLKAFDSQCQILLTTRDKSVTDSVMGPKYVVPVESSLGKEKGLEILSLFVNMKKADLPEQAHSIIKECKGSPLVVSLIGALLRDFPNRWEYYLKQLQNKQFKRIRKSSSYDYEALDEAMSISVEMLREDIKDYYTDLSILQKDVKVPTKVLCILWDMETEEVEDILQEFVNKSLLFCDRNGKSFRYYLHDLQVDFLTEKNCSQLQDLHKKIITQFQRYHQPHTLSPDQEDCMYWYNFLAYHMASAKMHKELCALMFSLDWIKAKTELVGPAHLIHEFVEYRHILDEKDCAVSENFQEFLSLNGHLLGRQPFPNIVQLGLCEPETSEVYQQAKLQAKQEVDNG
B7: 1-611: recombinant Apaf-1 protein, residues 1-611 (protein, UniProt O14727 1-611, looked up, fragment)
chain: MDAKARNCLLQHREALEKDIKTSYIMDHMISDGFLTISEEEKVRNEPTQQQRAAMLIKMILKKDNDSYVSFYNALLHEGYKDLAALLHDGIPVVSSSSGKDSVSGITSYVRTVLCEGGVPQRPVVFVTRKKLVNAIQQKLSKLKGEPGWVTIHGMAGCGKSVLAAEAVRDHSLLEGCFPGGVHWVSVGKQDKSGLLMKLQNLCTRLDQDESFSQRLPLNIEEAKDRLRILMLRKHPRSLLILDDVWDSWVLKAFDSQCQILLTTRDKSVTDSVMGPKYVVPVESSLGKEKGLEILSLFVNMKKADLPEQAHSIIKECKGSPLVVSLIGALLRDFPNRWEYYLKQLQNKQFKRIRKSSSYDYEALDEAMSISVEMLREDIKDYYTDLSILQKDVKVPTKVLCILWDMETEEVEDILQEFVNKSLLFCDRNGKSFRYYLHDLQVDFLTEKNCSQLQDLHKKIITQFQRYHQPHTLSPDQEDCMYWYNFLAYHMASAKMHKELCALMFSLDWIKAKTELVGPAHLIHEFVEYRHILDEKDCAVSENFQEFLSLNGHLLGRQPFPNIVQLGLCEPETSEVYQQAKLQAKQEVDNGMLYLEWINKKNITNLSRLVV
B8: 1-286: recombinant Apaf-1 fragment, residues 1-286 of SEQ ID NO: 1 (protein, listed as Homo sapiens)
chain: MDAKARNCLLQHREALEKDIKTSYIMDHMISDGFLTISEEEKVRNEPTQQQRAAMLIKMILKKDNDSYVSFYNALLHEGYKDLAALLHDGIPVVSSSSGKDSVSGITSYVRTVLCEGGVPQRPVVFVTRKKLVNAIQQKLSKLKGEPGWVTIHGMAGCGKSVLAAEAVRDHSLLEGCFPGGVHWVSVGKQDKSGLLMKLQNLCTRLDQDESFSQRLPLNIEEAKDRLRILMLRKHPRSLLILDDVWDSWVLKAFDSQCQILLTTRDKSVTDSVMGPKYVVPVESSL

Format: physicochemical, E. coli
Protocol: Preferably, solubility of the fragment is assessed in a lysate of a bacterial culture used to produce the fragment at a concentration of at least 1 milligram per liter of bacterial culture.
All constructs for protein expression were generated using a standard PCR-based cloning strategy, and the identity of individual clones was verified by double-stranded plasmid sequencing. A soluble Apaf-1 fragment (residues 1-591, sequence (SEQ ID NO: 1) shown in FIG. 1) was over-expressed in Escherichia coli strain BL21(DE3) using plasmid vector pET29 having the nucleotide sequence described by Jiang et al. (2000, J. Biol. Chem. 275:31199-31203) operatively ligated therein. The coding sequence included an additional sequence encoding eight amino acid residues at its carboxy-terminal end (i.e., linked to residue 591 in the translated protein). These residues (Leu-Glu-His6) included a nickel-binding hexa-histidine sequence used for metal affinity chromatographic purification of the expressed protein. Soluble Apaf-1 was purified from the cell lysate using a Ni-NTA (nitrilotriacetic acid-ligated nickel; Qiagen) chromatography column. Dithiothreitol (DTT) and ethylenediamine tetraacetic acid (EDTA) were added to the eluted fraction in final concentrations of 5 millimolar each. After incubation for 30 minutes on ice, the protein solution was applied to an anion-exchange column (Source-15Q, Pharmacia) for further purification.

Row | Molecule | Solubility | solubility and solution behavior (in words)
1 | B1 | +++ | good solubility and solution behavior
2 | B2 | ++ | good solubility and solution behavior
3 | B3 | +++ | good solubility and solution behavior
4 | B4 | ++ | soluble to significant extent
5 | B5 | ++ | without significant loss of activity or solubility
6 | B6 |  | without significant loss of activity or solubility
7 | B7 |  | good solubility and solution behavior
8 | B8 |  | largely insoluble
